The values that follow come from publication PMC9186387.

Read-outs that look alike come from different tables or passages of the source.

The target of data set [1] is C. crescentus full-length DriD (C. crescentus). Put plainly: SEC. On the technique in general: SEC sorts molecules by how far they enter the pores of the column.
The target of data set [2] is T1, DriD(Y168A-R178A-Y192A-R204A) (Caulobacter crescentus, UniProt Q9A999 5-331, Y172A;R182A;Y196A;R208A).
T1 sequence: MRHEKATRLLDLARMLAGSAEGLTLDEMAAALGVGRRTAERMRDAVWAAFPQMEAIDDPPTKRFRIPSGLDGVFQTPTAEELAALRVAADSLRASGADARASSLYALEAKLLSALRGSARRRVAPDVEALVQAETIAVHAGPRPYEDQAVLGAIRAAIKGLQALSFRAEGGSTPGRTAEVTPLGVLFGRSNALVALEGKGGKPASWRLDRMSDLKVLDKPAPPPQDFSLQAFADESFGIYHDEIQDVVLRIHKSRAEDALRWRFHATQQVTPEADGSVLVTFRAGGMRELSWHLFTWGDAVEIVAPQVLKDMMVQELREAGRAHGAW
The data set can be described thus: fluorescence polarization.

Data set [3] has as its target T2, DriD(Y168A) (Caulobacter crescentus, UniProt Q9A999 5-331, Y172A).
T2 sequence: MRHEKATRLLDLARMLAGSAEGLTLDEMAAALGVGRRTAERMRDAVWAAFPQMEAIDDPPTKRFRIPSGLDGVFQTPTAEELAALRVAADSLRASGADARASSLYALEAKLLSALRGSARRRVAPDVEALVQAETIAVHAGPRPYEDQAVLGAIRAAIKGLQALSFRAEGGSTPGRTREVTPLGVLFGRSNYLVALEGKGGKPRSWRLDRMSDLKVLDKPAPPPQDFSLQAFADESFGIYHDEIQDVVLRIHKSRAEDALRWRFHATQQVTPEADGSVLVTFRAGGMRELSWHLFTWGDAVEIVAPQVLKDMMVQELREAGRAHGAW
The data set can be described thus: fluorescence polarization.

For data set [4], the target named is T1, DriD(Y168A-R178A-Y192A-R204A). The data set can be described thus: fluorescence polarization. This is another data set of the same source.
For data set [5], the target named is T3, DriD(R176A-R178A) (Caulobacter crescentus, UniProt Q9A999 5-331, R180A;R182A).
T3 sequence: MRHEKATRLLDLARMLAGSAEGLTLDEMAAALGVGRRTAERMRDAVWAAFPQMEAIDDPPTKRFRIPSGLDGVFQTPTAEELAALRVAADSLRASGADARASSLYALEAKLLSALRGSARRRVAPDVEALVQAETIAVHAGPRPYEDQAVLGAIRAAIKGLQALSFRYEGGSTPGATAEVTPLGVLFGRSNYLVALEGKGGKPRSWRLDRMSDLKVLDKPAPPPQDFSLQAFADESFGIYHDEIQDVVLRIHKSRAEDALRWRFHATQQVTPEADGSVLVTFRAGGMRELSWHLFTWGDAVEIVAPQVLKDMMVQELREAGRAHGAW
The data set can be described thus: fluorescence polarization.

Consider “C. crescentus full-length DriD (natural protein)”, for which the stoichiometry N (in general, a count of units in the complex or per binding partner) in data set [1] was 2.

B1: DriD operator (optimized) (dsDNA)
DNA 1: ATACGACCGTTTCTGTCGCA
DNA 2: TGCGACAGAAACGGTCGTAT
On to B1, for which the binding result in data set [2] is “no binding”. In addition, in data set [3], the Kd (as a rule, the concentration at which binding is half-saturated) was determined as 22.3 ± 7 nM.

B2: 9mer ssDNA (F-labelled) (ssDNA)
DNA: TAGTCTACT
As to B2, the binding result in data set [4] and in data set [5] was “no binding” throughout.
